The supplement of paper PMC7125110
± gives the standard error. For part of these data: Variants at the floor of the assay were thinned out.

B1: glmS ribozyme (parent)
chain: AUAAAAGCGCCAGAACUACAGAAAUGUAGUUGACGAGGAGGAGGUUUAUCGAAUUUUCGGCGGAUGCCUCCAAA

How the values were obtained:
Conditions in all cases: with glucosamine-6-phosphate
[1] = variants of: B1; assay: kcat; higher = faster cleavage; RNA array
Summary of the method: (§1)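 Glucosamine-6-phosphate, from 40 μM to 10 mM in HEPES/KCl/Mg(OAc)2 buffer, was flowed over sequenced MiSeq chips carrying barcoded ribozyme variants transcribed in situ by E. coli RNA polymerase. A hybridised Cy3 probe tracked the variants at 37 °C as tiles were imaged over ~14 h. kobs, kcat and KM were obtained by fitting normalised per-tile medians to exponential decays and then applying weighted Michaelis–Menten fits across concentrations.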

[2] = variants of: B1; assay: KM; higher = weaker cofactor use; RNA array
Summary of the method: as §1

[3] = variants of: B1; assay: self-cleavage kobs at 640 uM GlcN6P; higher = faster cleavage; RNA array
Summary of the method: as §1

[4] = variants of: B1; assay: self-cleavage kobs at 2500 uM GlcN6P; higher = faster cleavage; RNA array
Summary of the method: as §1

[5] = variants of: B1; assay: self-cleavage kobs at 10000 uM GlcN6P; higher = faster cleavage; RNA array
Summary of the method: as §1

[6] = variants of: B1; assay: self-cleavage kobs at 40 uM GlcN6P; higher = faster cleavage; RNA array
Summary of the method: as §1

[7] = variants of: B1; assay: self-cleavage kobs at 160 uM GlcN6P; higher = faster cleavage; RNA array
Summary of the method: as §1

AUAAAAGCGCCAGAACUACAGAAAUGUAAUUGACGAGGAGGAGGUUUAUCGAAUUUUCGGCGGAUGCCUCAAAA
kcat [1]: 0.000446 ± 4.4e-05 s⁻¹
KM [2]: 592 ± 140 µM
self-cleavage kobs at 640 uM GlcN6P [3]: 0.000233 ± 4e-05 s⁻¹
self-cleavage kobs at 2500 uM GlcN6P [4]: 0.000344 ± 0.0001 s⁻¹
self-cleavage kobs at 10000 uM GlcN6P [5]: 0.000437 ± 0.00014 s⁻¹

AUAAAAGCGCCAGAACUACAGAAAUGUAAUUGACGAGGAGGAGGUUUAUCGAAUUUUCGGCGGAUCCCUCCAAA
kcat [1]: 6.73e-05 ± 1.1e-05 s⁻¹
KM [2]: 1940 ± 930 µM
self-cleavage kobs at 2500 uM GlcN6P [4]: 4.16e-05 ± 1.1e-05 s⁻¹
self-cleavage kobs at 10000 uM GlcN6P [5]: 5.41e-05 ± 1.4e-05 s⁻¹

AUAAAAGCGCCAGAACUACAGAAAUGUAAUUGACGAGGAGGAGGUUUAUCGAAUUGUCGGCGGAUGCCUCCAAA
kcat [1]: 0.00237 ± 0.00067 s⁻¹
KM [2]: 1720 ± 760 µM
self-cleavage kobs at 40 uM GlcN6P [6]: 6.78e-05 ± 1.3e-05 s⁻¹
self-cleavage kobs at 640 uM GlcN6P [3]: 0.000577 ± 9.1e-05 s⁻¹
self-cleavage kobs at 2500 uM GlcN6P [4]: 0.00129 ± 0.00021 s⁻¹
self-cleavage kobs at 10000 uM GlcN6P [5]: 0.00257 ± 0.00053 s⁻¹

AUAAAAGCGCCAGAACUACAGAAAUGUAAUCGACGAGGAGGAGGUUUAUCGAAUUUUCGGCGGAUGCCUCCAAA
kcat [1]: 0.000716 ± 0.00016 s⁻¹
KM [2]: 2070 ± 780 µM
self-cleavage kobs at 160 uM GlcN6P [7]: 7.58e-05 ± 2e-05 s⁻¹
self-cleavage kobs at 640 uM GlcN6P [3]: 0.000161 ± 3e-05 s⁻¹
self-cleavage kobs at 2500 uM GlcN6P [4]: 0.000333 ± 7.1e-05 s⁻¹
self-cleavage kobs at 10000 uM GlcN6P [5]: 0.000668 ± 0.00012 s⁻¹

AUAAAAGCGCCAGAACUACAGAAAUGUAAUUGACGAGGAGGAGGUUUAUCGAAUUUUCGGCGGAUGCUUCCAAA
kcat [1]: 0.000627 ± 0.0001 s⁻¹
KM [2]: 1720 ± 550 µM
self-cleavage kobs at 40 uM GlcN6P [6]: 2.8e-05 ± 8.3e-06 s⁻¹
self-cleavage kobs at 160 uM GlcN6P [7]: 6.11e-05 ± 8.5e-06 s⁻¹
self-cleavage kobs at 640 uM GlcN6P [3]: 0.000122 ± 2.6e-05 s⁻¹
self-cleavage kobs at 2500 uM GlcN6P [4]: 0.000374 ± 4.7e-05 s⁻¹
self-cleavage kobs at 10000 uM GlcN6P [5]: 0.000549 ± 5.1e-05 s⁻¹

AUAAAAGCGCCAGAACUACAGAAAUGUAAUUGACGACGAGGAGGUUUAUCGAAUUUUCGGCGGAUGCCUCCAAA
kcat [1]: 1.28e-05 ± 1.4e-06 s⁻¹

AUAAAAGCGCCAGAACUACAGAAAUGUACUUGCCGAGGAGGAGGUUUAUCGAAUUUUCGGCGGAUGCCUCCAAA
kcat [1]: < 1e-05 s⁻¹
self-cleavage kobs at 640 uM GlcN6P [3]: < 1e-05 s⁻¹

AUAAAAGCGCCAGAACUACAGAAAUGUACUUGGCGAGGAGGAGGUUUAUCGAAUUUUCGGCGGAUGCCUCCAAA
kcat [1]: 1.09e-05 ± 3.1e-06 s⁻¹

AUAAAAGCGCCAGAACUACAGAAAUGUAAUUGACGAGGAGGAGGCUUAUCGAAUUUUCGGCGGAUGCCUCCAAA
kcat [1]: 0.000385 ± 7.7e-05 s⁻¹
KM [2]: 2000 ± 720 µM
self-cleavage kobs at 160 uM GlcN6P [7]: 3.6e-05 ± 1.4e-05 s⁻¹
self-cleavage kobs at 640 uM GlcN6P [3]: 8.28e-05 ± 1.4e-05 s⁻¹
self-cleavage kobs at 2500 uM GlcN6P [4]: 0.000273 ± 4.1e-05 s⁻¹
self-cleavage kobs at 10000 uM GlcN6P [5]: 0.000293 ± 5e-05 s⁻¹

AUAAAAGCGCCAGAACUACAGAAAUGUACUUGACGAGGAGGAGGUUUAUCGUAUUUUCGGCGGAUGCCUCCAAA
kcat [1]: 5.44e-05 ± 2.8e-06 s⁻¹
KM [2]: 1790 ± 390 µM
self-cleavage kobs at 40 uM GlcN6P [6]: < 1e-05 s⁻¹
self-cleavage kobs at 2500 uM GlcN6P [4]: 3.25e-05 ± 1.4e-05 s⁻¹
self-cleavage kobs at 10000 uM GlcN6P [5]: 4.6e-05 ± 1e-05 s⁻¹

AUAAAAGCGCCAGAACUACAGAAAUGUAAUUGACGAGGAGGAGGUUUAUCGAAUUUUCCGCGGAUGCCUGCAAA
kcat [1]: < 1e-05 s⁻¹

AUAAAAGCGCCAGAACUACAGAAAUGUAAUUGACGAGGAGGAGGUUUAGCGAAUUUUCGGCGGAUGCCUCCAAA
kcat [1]: 6e-05 ± 8e-06 s⁻¹
self-cleavage kobs at 640 uM GlcN6P [3]: 4.72e-05 ± 1.7e-05 s⁻¹
self-cleavage kobs at 2500 uM GlcN6P [4]: 4.32e-05 ± 1.4e-05 s⁻¹
self-cleavage kobs at 10000 uM GlcN6P [5]: 6.26e-05 ± 1.1e-05 s⁻¹

AUAAAAGCGCCAGAACUACAGAAAUGUACUUGACGAGGAGGGGGUUUAUCGAAUUUUCGGCGGAUGCCUCCAAA
kcat [1]: 0.00279 ± 0.00031 s⁻¹
KM [2]: 1790 ± 300 µM
self-cleavage kobs at 40 uM GlcN6P [6]: 6.95e-05 ± 1e-05 s⁻¹
self-cleavage kobs at 160 uM GlcN6P [7]: 0.000209 ± 4e-05 s⁻¹
self-cleavage kobs at 640 uM GlcN6P [3]: 0.000724 ± 0.00013 s⁻¹
self-cleavage kobs at 2500 uM GlcN6P [4]: 0.00144 ± 0.00025 s⁻¹
self-cleavage kobs at 10000 uM GlcN6P [5]: 0.00253 ± 0.00032 s⁻¹

AUAAAAGCGCCAGAACUACAGAAAUGUACUUGACGAGGAGGAGGUUUAUCGAUUUUUCGGCGGAUGCCUCCAAA
kcat [1]: 0.00163 ± 0.00038 s⁻¹
KM [2]: 1950 ± 640 µM
self-cleavage kobs at 40 uM GlcN6P [6]: 5.34e-05 ± 1.1e-05 s⁻¹
self-cleavage kobs at 160 uM GlcN6P [7]: 0.000111 ± 1.9e-05 s⁻¹
self-cleavage kobs at 640 uM GlcN6P [3]: 0.000383 ± 6.3e-05 s⁻¹
self-cleavage kobs at 2500 uM GlcN6P [4]: 0.000902 ± 0.0002 s⁻¹
self-cleavage kobs at 10000 uM GlcN6P [5]: 0.00141 ± 0.00024 s⁻¹

AUAAAAGCGCCAGAACUACAGAAAUGUACUUGACGAGGAGGAGGUUUAUCGAAUUUUCGGCGGAUGCCUCCAAA
kcat [1]: 0.0045 ± 0.0012 s⁻¹
KM [2]: 2300 ± 720 µM
self-cleavage kobs at 40 uM GlcN6P [6]: 8.88e-05 ± 1.6e-06 s⁻¹
self-cleavage kobs at 160 uM GlcN6P [7]: 0.000212 ± 8.4e-06 s⁻¹
self-cleavage kobs at 640 uM GlcN6P [3]: 0.000839 ± 4.1e-05 s⁻¹
self-cleavage kobs at 2500 uM GlcN6P [4]: 0.00239 ± 0.0001 s⁻¹
self-cleavage kobs at 10000 uM GlcN6P [5]: 0.00377 ± 0.00011 s⁻¹

AUAAAAGCGCCAGAACUACAGAAAUGUAAUUGACGAGGAGGAGAUUUAUCGAAUUUUCGGCGGAUGCCUCCAAA
kcat [1]: 1.73e-05 ± 3.5e-06 s⁻¹
self-cleavage kobs at 40 uM GlcN6P [6]: < 1e-05 s⁻¹

AUAAAAGCGCCAGAACUACAGAAAUGUAAUUUACGAGGAGGAGGUUUAUCGAAUUUUCGGCGGAUGCCUCCAAA
kcat [1]: 0.00277 ± 0.00084 s⁻¹
self-cleavage kobs at 640 uM GlcN6P [3]: 7.58e-05 ± 1.8e-05 s⁻¹
self-cleavage kobs at 2500 uM GlcN6P [4]: 0.000325 ± 5.7e-05 s⁻¹
self-cleavage kobs at 10000 uM GlcN6P [5]: 0.000888 ± 0.00014 s⁻¹
